From patent US20090208538A1 (ROCKEFELLER UNIVERSITY, published 2009)

Tests used:
[1] = biological target: T1, HLA-A*0201 (human); assay: iTopia net score;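 also: combined score from peptide binding, ED₅₀ and half-life of peptide complexes with plate-bound HLA-A2 molecules, computed by a proprietary formula in iTopia software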
T1 construct: also called HLA-A2.1; HLA A2.1

[2] = biological target: T1, HLA-A*0201; assay: iTopia binding;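 also: each peptide tested for binding to HLA-A2 molecules immobilized on plates, using a commercial screening kit run per its supplied protocol and reagents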
[3] = biological target: T1, HLA-A*0201; assay: iTopia off-rate;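 also: Half-life of peptide complexes with plate-bound HLA-A2, peptides loaded 18 h at 21 C, washed, then held at 37 C over several time points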
[4] = biological target: T1, HLA-A*0201; assay: iTopia affinity;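 also: peptide affinity for plate-bound HLA-A2 molecules (iTopia system), with ED50 derived from an eight-point serial peptide dilution series run under binding assay conditions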
[5] = biological target: HLA-A*2402 (human); assay: iTopia affinity;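 also: peptide binding to HLA-A*2402 measured in iTopia kit format across eight serial peptide dilutions, ED50 derived from the resulting titration curve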
[6] = biological target: HLA-A*2402 (human); assay: iTopia net score;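 also: iScore from iTopia software combining peptide binding, affinity over a dilution series and off-rate after warming to body temperature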
[7] = biological target: HLA-A*2402 (human); assay: iTopia off-rate

iScore [1]	binding vs positive control [2] [%]	t1/2 [3]	ED50 [4] [µM]	ED50 [5] [µM]	iScore [6]	t1/2 [7]	Binder
0.528	> 30	6.5	2				VTMEEEYGL [cdr2 217-225 VTMEEEYGL]
				1.5	0.357	1.6	YKALFKEIF [cdr2 422-430 YKALFKEIF]
				0.65	0.444	1.72	EYLTKQVEL [cdr2 64-72 EYLTKQVEL]
				8.8	0.092	1.02	VEKLVPDSL [cdr2 271-279 VEKLVPDSL]
0.13	> 30	1.2	10				LGATGAYRA [cdr2 237-245 LGATGAYRA]
0.174	> 30	3.42	8.1				QAQLSLERQ [cdr2 206-214 QAQLSLERQ]
0.176	> 30	2.4	20				CLQTNIDHL [cdr2 121-129 CLQTNIDHL]
0.129	> 30	0.8	4				SLSHKAVQT [cdr2 373-381 SLSHKAVQT]
0.187	> 30	0.5	1				ASGWELASV [cdr2 400-408 ASGWELASV]
0.752	> 30	7	1				RGISLLHEV [cdr2 341-349 RGISLLHEV]
				0.44	0.505	1.63	EYKALFKEI [cdr2 421-429 EYKALFKEI]
0.292	> 30	6.4	10				GVNAQSEPV [cdr2 391-399 GVNAQSEPV]
				10	0.172	1.15	VKQRGISLL [cdr2 338-346 VKQRGISLL]
0.187	> 30	0.51	0.95				LSLTETIEC [cdr2 113-121 LSLTETIEC]
0.323	> 30	7.7	10				HLQSQVEEL [cdr2 128-136 HLQSQVEEL]
0.244	> 30	1.9	4				LASVNPEPV [cdr2 405-413 LASVNPEPV]
0.15	> 30	1.4	20				QLAAELGKT [cdr2 29-37 QLAAELGKT]
0.166	> 30	1.27	6.3				TMEEEYGLV [cdr2 218-226 TMEEEYGLV]
0.178	> 30	5.44	30				QSLLEEMFL [cdr2 288-296 QSLLEEMFL]
				3.1	0.097	0.21	QHFVYDHVF [cdr2 169-177 QHFVYDHVF]

iScore [1]	binding vs positive control [2] [%]	t1/2 [3]	ED50 [4] [µM]	ED50 [5] [µM]	iScore [6]	t1/2 [7]	Binder
0.238	> 30	1.1	2				TILSSLAGS (Position printed as 313-221) [cdr2 313-221 TILSSLAGS]
0.176	> 30	2.38	16				LKSSGQGRR [cdr2 136-144 LKSSGQGRR]
0.282	> 30	5.5	10				FVYDHVFAE [cdr2 171-179 FVYDHVFAE]
				1.4	0.218	0.49	PFVNGVEKL [cdr2 266-274 PFVNGVEKL]
				0.075	0.529	1.11	LFKEIFSCI [cdr2 425-433 LFKEIFSCI]
				0.54	0.441	1.46	MYTTNQEQL [cdr2 52-60 MYTTNQEQL]
0.154	> 30	2.42	11				SQVEELKSS [cdr2 131-139 SQVEELKSS]
				0.49	0.496	1.25	PFKEPSQSL [cdr2 282-290 PFKEPSQSL]
0.139	> 30	1.3	8				KVYEQLDVT [cdr2 82-90 KVYEQLDVT]
0.166	> 30	1.3	6				NIDHLQSQV [cdr2 125-133 NIDHLQSQV]
0.235	> 30	5.1	5				MLQAQLSLE [cdr2 204-212 MLQAQLSLE]
0.499	> 30	6.1	3				KLVPDSLYV [cdr2 273-281 KLVPDSLYV]
0.15	> 30	1.38	17				EMFLTVPES [cdr2 293-301 EMFLTVPES]
0.262	> 30	6.3	9				DSLSHKAVQ [cdr2 372-380 DSLSHKAVQ]
0.469	> 30	6.5	3				AAAKDLTGV [cdr2 384-392 AAAKDLTGV]
0.154	> 30	2.4	10				LVPDSLYVP [cdr2 274-282 LVPDSLYVP]
				3.1	0.098	0.35	QYSALKVKY [cdr2 352-360 QYSALKVKY]
				3.4	0.142	1.47	EQLQEIEYL [cdr2 58-66 EQLQEIEYL]
0.803	> 30	13.9	6				SLLEEMFLT [cdr2 289-297 SLLEEMFLT]
